Results: patent US20250297019A1

Columns and labels:
[1] = biological target: human CCR8 (human) (UniProt P51685); test: cell-based or functional assay
[2] = biological target: cynomolgus monkey CCR8 (cynomolgus monkey); test: assay not described ('in vitro assays')
[3] = biological target: human CCR8 (human) (UniProt P51685); test: assay not described ('in vitro assays')

Chain of cynomolgus monkey CCR8 (cynomolgus monkey) (O97665 other isoform, or with tags, fused parts or gaps): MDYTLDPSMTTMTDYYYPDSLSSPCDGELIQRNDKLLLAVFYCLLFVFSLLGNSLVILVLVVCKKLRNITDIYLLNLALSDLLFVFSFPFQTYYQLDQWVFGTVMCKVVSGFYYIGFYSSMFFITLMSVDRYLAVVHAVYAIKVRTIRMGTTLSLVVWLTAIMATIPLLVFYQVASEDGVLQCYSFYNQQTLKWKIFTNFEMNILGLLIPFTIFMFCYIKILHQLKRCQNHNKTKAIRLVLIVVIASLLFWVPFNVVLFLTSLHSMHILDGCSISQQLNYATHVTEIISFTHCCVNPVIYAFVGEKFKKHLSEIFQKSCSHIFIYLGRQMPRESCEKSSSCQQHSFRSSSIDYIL

IC50 of CCL1 blocking (Ca2+ influx, CHO/hCCR8.Gna15 cells) [1] | induction fold at plateau (about 40 nM antibody), mFcgRIV Jurkat reporter with CHO/hCCR8 [1] | induction fold, mFcgRIV Jurkat NFAT-luciferase reporter with CHO/hCCR8, at about 1 nM antibody [1] | Kd [2] | Kd [3] | ADCC geometric mean EC50 (calcein release; PBMC effector cells of 8 donors, hCCR8.GNA15 CHO target cells) [1] | Substance
23.6 nM | 11 fold | > 10 .fold |  |  |  | murine anti-human CCR8 mAb L263G8 (Biolegend) (antibody)
 |  |  | 27 µM | 32 µM | 3 ng/mL | RO7502175 (antibody)
